Data from the Immune Epitope Database (IEDB).

How the values were obtained:
Assay in all cases: IEDB peptide-MHC binding, purified MHC/competitive/radioactivity; filed as Kd, often an IC50 or EC50 that approximates it; ≥ and ≤ were set here for values at or beyond the usual limits of such assays
Details in all cases: source organism: Lake Victoria marburgvirus - Angola2005
HLA-B*08:01 = biological target: HLA-B*08:01
HLA-B*07:02 = biological target: HLA-B*07:02
HLA-A*68:02 = biological target: HLA-A*68:02
HLA-A*26:01 = biological target: HLA-A*26:01
HLA-B*40:01 = biological target: HLA-B*40:01
HLA-B*44:02 = biological target: HLA-B*44:02
HLA-A*02:03 = biological target: HLA-A*02:03
HLA-A*02:06 = biological target: HLA-A*02:06
HLA-A*24:02 = biological target: HLA-A*24:02
HLA-A*30:02 = biological target: HLA-A*30:02
HLA-A*32:01 = biological target: HLA-A*32:01
HLA-B*15:01 = biological target: HLA-B*15:01
HLA-A*23:01 = biological target: HLA-A*23:01
HLA-A*30:01 = biological target: HLA-A*30:01
HLA-A*68:01 = biological target: HLA-A*68:01

APFARVLNL
Kd (HLA-B*08:01): 0.067 µM
Kd (HLA-B*07:02): 0.00021 µM

EVASFKQAL
Kd (HLA-A*68:02): 0.0027 µM
Kd (HLA-B*07:02): 0.25 µM
Kd (HLA-A*26:01): 0.086 µM

GEYAPFARV
Kd (HLA-B*40:01): 0.107 µM
Kd (HLA-B*44:02): 0.214 µM

GLYPQLSAI
Kd (HLA-A*02:03): 0.0014 µM
Kd (HLA-A*02:06): 0.0069 µM

HYSPLILAL
Kd (HLA-A*24:02): 0.064 µM

KVKNEVASF
Kd (HLA-A*30:02): 0.158 µM
Kd (HLA-A*32:01): 0.0029 µM
Kd (HLA-B*15:01): 0.0056 µM

LIVKTVLEF
Kd (HLA-A*23:01): 0.109 µM
Kd (HLA-B*15:01): 0.0008 µM

TVLEFILQK
Kd (HLA-A*30:01): 0.365 µM
Kd (HLA-A*68:01): 0.0022 µM
